According to patent US20100150941A1 (DSO NATIONAL LABORATORIES, published 2010):

B1: VN04-3 (antibody, V domains shown)
VH: QVQLQESGPDLVKPGASVMISCKASGYSFTYYYMHWVKQSHGKTLEWIGRIYPYNGDTNYNRRFKDKAILTVDESSSTAYMELRSLTSEDSAVYFCARDANYEGDWYFDVWGQGTTVTVSS
VL: DIQMTQSPSSFSVSLGDRVTITCKASEDIYNRVAWYQQKPGNAPRLLMSDATSLGAGVPSRFSGSGSGKDHTLSITSLQTEDVATYYCQQYWNTRTFGGGTKLEIKR
B2: VN04-3-huG1 (antibody, V domains shown)
VH: B1 VH
VL: B1 VL

Experiments:
[1] = target: T1, hemagglutinin of A/Vietnam/1203/04 (H5N1) on virus (influenza A virus H5N1, …, UniProt Q80A26 6-557); test: inferred from HI and virus neutralization assays
[2] = target: T1, hemagglutinin of A/Vietnam/1203/04 …; test: HI assay

Binder | binding result [1] | binding result [2]
B1 | binds | –
B2 | – | binds
